We go through 23 sequences from the DeepSol protein solubility set.

The nature of this series: soluble on expression in E. coli; label from the status in PepcDB or PDB records.
Consider “MKTIEVDDELYSYIASHTKHIGESRSDILRRMLKFSAASQKPVKTIKDKVRAMRELLLSDEYAEQKRAVNRFMLLLSTLYSLDAQAFAEATESLHGRTRVYFAADEQTLLKNGNQTKPKHVPGTPYWVITNTNTGRKCSMIEHIMQSMQFPAELIEKVCGTI”, for which the “soluble on expression in E. coli” value is reported as “soluble”.
With “MIKQVGNTQINPLHRLTCHCGKVELELTLPNGIEKPRRCDCSMCRRRGAIVASVPLSGIRIVQGDDVLKLYQFNTHTAKHFFCSECGIYTHHQRRSDPSEYGYNVGCLEGVNPYELGDIEVMDGVNHPSDRLEHHHHHH” the entry was “not soluble”; with “MIDVKSIILIVLDGLGDRPGEILGYRTPLQAAYHPNMNRMASLGMTGLMHPISPGIRSGSDTSHMSLLGYDPRVYYQGRGPFEALGLHMDMKPGDLAFRANFATNRDGKIIDRRAGRINAGNDQLASAISIDIGNYKFRVKSGVEHRAALVVSGPNLSDKISDSDPHSEGKPPEPIRPLDPSADSTAKIMNEYLKRIREILRDHPVNVEREKNGQIPGNELLIRSAGKVPDIPSFQEKNGITGACVVGSPWLKGLCRLLGMAVIDVPGAAGTINSNYTGKIKTAIDASKRYDFVLVNIKATDVAGHDGDYELKRRVIEDIDIAMEPLLGQSDRIVVAITGDHSTPCSVKDHSGDPVPIVFYTDGIYSDDVKLFDEVSAMKGALRITTQDVLNILMEMAGRAEKFGS”, “not soluble”.
As for “MAHHHHHHMRRTGIRRVAPWVPPPRHDVKVTMPPPPGGEVGGSFGVSIGYSDRIACTPYWKRMALSNYALRMKENATRYPMSEHRPGEYDIRYLPKPYPCTIRNRPLLEVGEPRQIPSIQIPVIFLVNLYNEEKNSWFGRKYETVYVSRQFMREELMPQRYAIYATPEAYALLGLPVVDHGIHKEIPKTPREYEKLLERQKYDEERWKYSIEYLFRKYEAGPPELLDRAEDTWDGTEVLAVSSTAGAARHGEAVQRKGAIKHRKARKIKLF”, the entry is “not soluble”; as for “MPTGKSESSDISEVVGNMEISKVEGLEACIGMSHEVSTTPAAELAAFRARKVALITGISGQDGSYLAELLLSKGYKVHGIIRRSSSFNTARIEHLYSNPITHHGDSSFSLHYGDMTDSSCLIKLISTIEPTEVYHLAAQSHVKVSFDLPEYTAEVDAVGTLRLLDAIHACRLTEKVRFYQASTSELYGKVQEIPQSEKTPFYPRSPYAVAKMYGYWIVVNYREAYNMFACNGILFNHESPRRGETFVTRKITRSVAKISLGQQESIELGNLSALRDWGHAREYVEAMWRILQHDSPDDFVIATGKQFSVREFCNLAFAEIGEVLQWEGEGVEEVGKNKDGVIRVKVSPKYYRPTEVETLLGNAEKAKKTLGWEAKVTVPELVKEMVASDIILMKSNPMA”, “not soluble”; as for “STVSEAYSPPLFSIAPMMGWTDNHYRTLARLITKHAWLYTEMLAAETIVYQEDNLDSFLAFSPDQHPIVLQIGGRNLENLAKATRLANAYAYDEINFNCGCPSPKVSGRGCFGALLMLDPKFVGEAMSVIAANTNAAVTVKCRIGVDDHDSYNELCDFIHIVSSLSPTKHFIIHSRKALLSGLSPSDNRRIPPLKCVQKVFLCPFA”, “soluble”.
Consider “MSLTTSYHIGNVVCAIIEREGRFLIARRPLGKHLARKWEFPGSKVETGESEAEALERELIEELGVRMEIVERLMPVEHCYADRSLRLIAFHCRIAAGAPNAGEHEELRWIDIGEADDYDFPEADLPILAEYRQKIAASVQSEGHHHHHH”, for which the “soluble on expression in E. coli” value is on record as “not soluble”.
As for “MCSHGHSHNCAAEHIPEVPGDDVYRYDMVSYIDMEKVTTLNESVDGAGKKVFKVMEKRDDRLEYVESDCDHELLFNIPFTGHVRLTGLSIIGDEDGSHPAKIRLFKDREAMSFDDCSIEADQEIDLKQDPQGLVDYPLKASKFGNIHNLSILVDANFGEDETKIYYIGLRGEFQHEFRQRIAIATYESRAQLKDHKNEIPDAVAKGLF”, the entry is “not soluble”; as for “GFKCGIVGLPNVGKSTLFNALTKAGIEAANFPFCTIEPNTGVVPMPDPRLDQLAEIVKPQRTLPTTMEFVDIAGLVKGASKGEGLGNQFLTNIRETEAIGHVVRCFENDNIIHVSGKVNPADDIEVINTELALADLDTCERAIHRVQKKAKGGDKDAKAELAVLEKCLPQLENAGMLRALDLSAEEKAAIRYLSFLTLKPTMYIANVNEDGFENNPYLDQVREIAAKEGSVVVPVCAAVEADIAELDDEERDEFMQELGLEEPGLNRVIRAGYKLLNLQTYFTAGVKEVRAWTIPVGATAPQAAGKIHTDFEKGFIRAQTISFEDFITYKGEQGAKEAGKMRAEGKDYIVKDGDVMNFLFNV”, “not soluble”.
With “MIKTGELKYIEEKIERREDLDEDDIVYMYDEADVNDLGKLARSITDKISGKRVSFVSNIILNYTNICNVRCKFCAFYRKSGEYDAYTMTPDGVIDEIRKYYPYGIRQILIQGGVNPNLDLDYYLTVFRKIRENFTEAGINGLSAAEINFISKKAHLTYEETILKLKEAGLETIPGAGAEILDEDVRVKLGRPRGSGRQWLEIMETAHRLGVKTTATMVYGHIESSMDKARHLISIRNLQKKYHGFLSFTPWNMEPDNTELQKEGILKYRAGAEDVIRNIAISRIVFNYDLPIIQSSWLTNGVEMGQLAILYGANDWGGTIYDEKVIPATGKRVGNLRKEIIIRSIKDLGMVPVERDNLYREIAVYE” the entry was “not soluble”; with “MSEQAPAPKRGRRFKEQTPVQRALGLLVHREHSKKELNRKLQARGIEPEAAQAAVERLAGEGWQDDVRFAASVVRNRASSGYGPLHIRAELGTHGLDSDAVSAAMATFEGDWTENALDLIRRRFGEDGPVDLAQRRKAADLLARRGFDGNSIRLATRFDLED”, “soluble”.
On to “MNNENMLSDNSTQTSQINETIDQPIIYILDTNILLHEPFAFLSFKEHDVVVPMTVLEELDSIKDRRKDVSRDARVAIRALEDTLRDASPEQVLAGVKLPQNDDQHPSGSLAIINDYALEKTAHTLSFNENDNRIINAALHIQKKTPNKKIVLVTKDINMRLKAKGAGLAHVEDYRTDQLIDDIQFLTKGYHKFEGDFWQQIQSVDSETEGRNTTHYVSRETVPSTYINEYLLDDSGTFAGKVTGWDDDKLAILDLGRERLLAKNAWGIHPKNIYQGMAMDALLDPTIDLVILTGPAGSGKTLLALASALEQVIERGLYDKIIVTRSTPEIAESIGFLPGTEEEKMAPWLAAITDSLEVLHQQDESMHGSLNYIMDKANIQFKSVNFMRGRSIQNALVLLDECQNLTAAQLKTIITRCGEGTKLVCSGNLAQIDSNYLTAVTSGLTYIVERFKDFPGSATVNLNGVVRSRLASFAEENL”, for which the “soluble on expression in E. coli” value was “soluble”.
For the sequence DHYACVSSGGQCLYSACPIFTKIQGTCYRGKAKCCK, the “soluble on expression in E. coli” value is on record as “soluble”.
As to “LALQAKQYGDFDRYVLALSWQTGFCQSQHDRNRNERDECRLQTETTNKADFLTVHGLWPGLPKSVAARGVDERRWMRFGCATRPIPNLPEARASRMCSSPETGLSLETAAKLSEVMPGAGGRSCLERYEYAKHGACFGFDPDAYFGTMVRLNQEIKESEAGKFLADNYGKTVSRRDFDAAFAKSWGKENVKAVKLTCQGNPAYLTEIQISIKADAINAPLSANSFLPQPHPGNCGKTFVIDKAGY”, the “soluble on expression in E. coli” value is “soluble”.
As for “MGHHHHHHSHMDLDSGDVKRRVHLFETQRRTKEEDPIIPFSDGPIISKWGAISRSSRTGYHTTDPVQATASQGSATKPISVSDYVPYVNAVDSRWSSYGNEATSSAHYVERDRFIVTDLSGHRKHSSTGDLLSLELQQAKSNSLLLQREANALAMQQKWNSLDEGRHLTLNLLSKEIELRNGEVKKLNLSASCLMYLFSAAASWLYHY”, the entry is “not soluble”; as for “MSLRAIGLSNQVQHLKETVIAVEKKSKHKKTDDSLDISRIQYYMNNFVYYYINYSQDTADQRKTELENYYSFSTASMTDDVRKSRTLQTQRLISVEKEKDYYIALMRIGYEVDKKSYQMNLAVPFQMQRGLLAIVSQPYTVAEDLYLGKSKAFEKKTLDQVKELSKEQVSSIQKFLPVFFNKYALINKTDLKLLMKTPELMGKGFKVSELDLNNAIYYQEKKHQVVQLSVTFEDLVTGGTRSENFTLYLFKADNGWYVEEMYHYFKEGHHHHHH”, “soluble”; as for “MSELKDIIAAVTPCKGADFELQALKIRQPQGDEVLVKVVATGMCHTDLIVRDQKYPVPLPAVLGHEGSGIIEAIGPNVTELQVGDHVVLSYGYCGKCTQCNTGNPAYCSEFFGRNFSGADSEGNHALCTHDQGVVNDHFFAQSSFATYALSRENNTVKVTKDVPIELLGPLGCGIQTGAGACINALKVTPASSFVTWGAGAVGLSALLAAKVCGASIIIAVDIVESRLELAKQLGATHVINSKTQDPVAAIKEITDGGVNFALESTGSPEILKQGVDALGILGKIAVVGAPQLGTTAQFDVNDLLLGGKTILGVVEGSGSPKKFIPELVRLYQQGKFPFDQLVKFYAFDEINQAAIDSRKGITLKPIIKIA”, “soluble”.
Regarding “MMSTSIPDVAVHDSPAIAAPLRWVGMDGIVVPVQLTTADGGQHVIGRARAQIDLPAMGVKGIHMSRLYRLLDTYAVEPLTPVGICGLLSAMVNSHADCASTAARVDWYFDWLRRVPALVSNDLSGWRGYPVWLRAEYSAGHVQFWLCVEVAYSSTCPCSAALARQMLADAFLQEHVEVSALSPETVADWLRSNGSYATPHSQRSLARIEVALTEQAVELGLPALVDCAERILSTPVQAAVRRVDEQAFARLNGANLMYVEDATRRLQHGLAIHYSAFRVHVRHLESLHPNDAVASTADE”, the “soluble on expression in E. coli” value is given as “not soluble”.
On to “METIVQKFGGTSVGSVERIQHVANLIIEEYERGHSIVSVVSAMGKSTDELVALANAITENPSKREMDMLLSTGEQVTISLLTMALQAKGYHAISLTGWQAGITTESVHSSARITDIHTDRIQSYLAEGTIVIVAGFQGVSEDFEITTLGRGGSDTTAVALAAALKAKKCDIYTDVTGVYTTDPRVVKDAYKLDEISYDEMLELANLGAGVLHPRAVEFAKNHNVVLEVRSSMEQENGTIVKGECNMEQQSIVKGIAFEDNITRVTIKGLEQGSLSTVFSTLAAAHINVDIIIQSITNEGTVHLSFSIHSNDLRETLEVLEQNQEALHYEAVEYENHLAKVSIVGSGMVSNPGVAANMFTTLKEEDIHIKMVSTSEIKVSVVIDRLHLVTGVEALHQSFMAKIEPFVQMS”, for which the “soluble on expression in E. coli” value is listed as “not soluble”.
With “MRGSHHHHHHGMASMTGGQQMGRDLYDDDDKMSVIKPEMKMKYFMDGSVNGHEFTVEGEGTGKPYEGKHKITLDVTKGGPLPFAFDLLSTVFSYGNRCLTKYPDDIPDYFKQCFPGGYSWERKFEFEDGGLAIAKAEISLKGNCFEHKSTIEGTFPDSSPIAQNKTLGWEPSTEKMTVRDGSMKGDDAAYLKLVGGGNHKCYFTTTYTAKKKIPNLPQSHFIGHRISSVVNGTKIGVMEDAIAHLYPFNGVPCQ” the entry was “soluble”.
As for “MLSTIEYLSLLRKYMRENAVKYGISRMGIFGSVARGEQHDGSDVDICVEIDRPSIFTLVHIKEELEKLFKCPVDVVRLRNNMDELLRNCINKDGIYV”, the entry is “not soluble”.
Regarding “MAHHHHHHMEGKKCFYITEKGKKQNFRNIKLITFDLDHTIWNIDGLLNYADKECYEYMKKNYRRLYDYLQEEYQLSITNLVKQLLENKIEDNNDGVQTLTNMRIDALKFLAKKTNYDEGKFVSEIQELWKEKKNDVHLFISPGTLEYLRELKRRGYTLGAITNGDSDVNGIKFLNEIFTFVIRSMDYNHSKPSVEIFNIAENILKKKNFHFEIHQWMHVGDDVYTDIMGAKNKNINCAWITMFRDGSEVPPNDWYPYLKLKLEENGDSHLSQYDPFADGLFSRFRRRDVVLPYEYIDIEIRHCRDLDAILA”, the “soluble on expression in E. coli” value is “soluble”.
As for “MAHHHHHHMLRRTARRAMGNSRFSGSKERDRIEQERRRRLLYDAAGNLQLGGLLLMMYDDFKKPAAIGLGMVAFLYGYNRLVVRLSREEEAEGLQLDAKSEAVARQTGKLKADRYLVKPNRQIDDPDFLNIPAFGGRGVSSSKLLSDDSVSGGALHSERKRS”, the “soluble on expression in E. coli” value is on record as “not soluble”.
